Assay results as given in patent US20070224196A1 (ELUSYS THERAPEUTICS, published 2007).

How the values were obtained:
[1] = molecular target: T1, human erythrocyte complement receptor 1 (CR1) (human, UniProt P17927 42-2039); experiment: erythrocyte binding assay (FIGS. 10-13)
T1 construct: whole, on cells; also called C3b receptor; CD35

[2] = molecular target: T1, human erythrocyte complement receptor 1 …; experiment: erythrocyte binding assay, antibody with RBCs in solution, A405 read-out

T1 sequence (P17927 42-2039): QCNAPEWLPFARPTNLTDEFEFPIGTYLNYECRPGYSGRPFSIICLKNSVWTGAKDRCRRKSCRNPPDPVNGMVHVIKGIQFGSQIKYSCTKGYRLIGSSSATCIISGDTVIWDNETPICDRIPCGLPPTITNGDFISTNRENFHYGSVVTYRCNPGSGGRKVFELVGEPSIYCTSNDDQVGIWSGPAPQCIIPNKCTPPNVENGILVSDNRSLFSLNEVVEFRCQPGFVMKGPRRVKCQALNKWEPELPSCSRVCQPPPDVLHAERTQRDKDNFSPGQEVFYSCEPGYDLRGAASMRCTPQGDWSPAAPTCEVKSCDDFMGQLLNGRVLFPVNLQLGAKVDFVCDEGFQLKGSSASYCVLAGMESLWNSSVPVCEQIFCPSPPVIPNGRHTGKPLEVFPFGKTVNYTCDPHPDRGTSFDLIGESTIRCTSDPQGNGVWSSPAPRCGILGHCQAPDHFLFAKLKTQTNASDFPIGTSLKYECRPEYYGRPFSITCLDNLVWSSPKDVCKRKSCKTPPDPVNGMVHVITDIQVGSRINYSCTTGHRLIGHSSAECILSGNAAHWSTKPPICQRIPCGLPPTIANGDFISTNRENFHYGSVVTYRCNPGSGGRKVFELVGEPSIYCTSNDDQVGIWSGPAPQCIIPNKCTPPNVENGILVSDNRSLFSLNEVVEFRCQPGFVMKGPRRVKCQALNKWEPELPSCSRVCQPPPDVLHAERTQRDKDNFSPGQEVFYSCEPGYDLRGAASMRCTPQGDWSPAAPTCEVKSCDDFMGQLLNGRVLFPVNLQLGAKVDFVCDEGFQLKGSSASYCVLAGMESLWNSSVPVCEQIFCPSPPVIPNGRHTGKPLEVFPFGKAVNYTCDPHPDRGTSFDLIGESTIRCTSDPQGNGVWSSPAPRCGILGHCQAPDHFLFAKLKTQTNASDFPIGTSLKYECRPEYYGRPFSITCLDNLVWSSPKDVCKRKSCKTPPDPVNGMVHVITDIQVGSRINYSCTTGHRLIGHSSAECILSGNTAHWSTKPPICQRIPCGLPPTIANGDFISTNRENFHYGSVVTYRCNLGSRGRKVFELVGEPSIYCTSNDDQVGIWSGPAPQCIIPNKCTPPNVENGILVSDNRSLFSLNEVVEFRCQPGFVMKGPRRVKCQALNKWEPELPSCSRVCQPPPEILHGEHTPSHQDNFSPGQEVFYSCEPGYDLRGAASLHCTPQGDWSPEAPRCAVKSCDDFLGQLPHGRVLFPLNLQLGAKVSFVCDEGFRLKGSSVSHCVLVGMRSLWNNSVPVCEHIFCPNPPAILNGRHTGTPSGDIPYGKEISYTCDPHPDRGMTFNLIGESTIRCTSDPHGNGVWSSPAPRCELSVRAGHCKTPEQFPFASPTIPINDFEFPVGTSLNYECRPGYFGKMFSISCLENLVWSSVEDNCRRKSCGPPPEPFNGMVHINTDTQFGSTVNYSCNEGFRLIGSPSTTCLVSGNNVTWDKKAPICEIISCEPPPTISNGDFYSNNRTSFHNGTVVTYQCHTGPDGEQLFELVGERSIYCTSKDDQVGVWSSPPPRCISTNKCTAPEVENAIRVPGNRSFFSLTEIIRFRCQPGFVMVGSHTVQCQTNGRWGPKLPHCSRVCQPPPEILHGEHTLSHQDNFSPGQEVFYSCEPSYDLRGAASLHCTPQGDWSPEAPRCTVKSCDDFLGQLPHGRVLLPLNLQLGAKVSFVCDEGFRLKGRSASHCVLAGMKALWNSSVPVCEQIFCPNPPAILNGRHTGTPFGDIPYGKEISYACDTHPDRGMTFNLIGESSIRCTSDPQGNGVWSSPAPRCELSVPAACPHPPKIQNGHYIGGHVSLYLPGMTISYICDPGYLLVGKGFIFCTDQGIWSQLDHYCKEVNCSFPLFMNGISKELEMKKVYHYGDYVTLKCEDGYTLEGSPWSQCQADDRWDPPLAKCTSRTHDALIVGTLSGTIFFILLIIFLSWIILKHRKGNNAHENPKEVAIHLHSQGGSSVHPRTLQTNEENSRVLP

Binder	fold reduction of binding compared to the chimeric antibody [1]	ng of antibody at A405 0.4 [2]
E DI VH4/VL2 (antibody, V domains shown, also called E DI V4/VL2) VH: DVQLQESGPGLVKPSQTLSLTCTVSGYSITSDYAWNWIRQFPGKGLEWIGYISYSGSTSYHPSLKSRISISRDTSKNQFFLQMNSVTTEDTATYYCTTIINYDKYDWYFDVWGQGTTVTVSS VL: DIVLTQSPASLVVSVRQRATISCRASQSVRTSSYSYIHWYQQKPGQPPKLLIKYASSLESGVPARFSGSGSGTDFTLNISPVEEEDTATYYCQHSWEIPWTFGPGTTVEIK	~10 fold	30 ng
E DI VH2/VL1 44H1 (antibody, V domains shown, also called immunogenicity-reduced Ab VH2/VL1) VH: DVQLQESGPGLVKPSQTLSLTCTVSGYSMTSDYAWNWIRQFPGKGLEWIGYISYSGSTSYHPSVKSRITISRDTSKNQFFLQMNSVTTEDTATYYCTTIINYDKYDWYFDVWGQGTTVTVSS VL: DIVLTQSPASLVVSVRQRATISCRASQSVRTSSYSYIHWYQQKPGQPPKLLIYYASSLESGVPARFSGSGSGTDFTLNISPVEEEDTATYYCQHSWEIPWTFGPGTKVEIK	~2 fold	12 ng
E DI VH1/VL2 (antibody, V domains shown) VH: DVQLQESGPGLVKPSQTLSLTCTVSGYSMTSDYAWNWIRQFPGKGLEWIGYISYSGSTTYHPSVKSRITISRDTSKNQFFLQMNSVTTEDTATTYCTTIINYDKYDWYFDYWGQGTTVTVSS VL: DIVLTQSPASLVVSVRQRATISCRASQSVRTSSYSYIHWYQQKPGQPPKLLIKYASSLESGVPARFSGSGSGTDFTLNISPVEEEDTATYYCQHSWEIPWTFGPGTTVEIK	~10 fold	9 ng
E DI VH3/VL2 15A12 (antibody, V domains shown, also called immunogenicity-reduced Ab VH3/VL2) VH: DVQLQESGPGLVKPSQTLSLTCTVSGYSMTSDYAWNWIRQFPGKGLEWIGYISYSGSTSYHPSLKSRISISRDTSKNQFFLQMNSVTTEDTATYYCTTIINYDKYDWYFDVWGQGTTVTVSS VL: DIVLTQSPASLVVSVRQRATISCRASQSVRTSSYSYIHWYQQKPGQPPKLLIKYASSLESGVPARFSGSGSGTDFTLNISPVEEEDTATYYCQHSWEIPWTFGPGTTVEIK	~10 fold	–
E DI VH3/VL1 12H10 (antibody, V domains shown, also called immunogenicity-reduced Ab VH3/VL1) VH: DVQLQESGPGLVKPSQTLSLTCTVSGYSMTSDYAWNWIRQFPGKGLEWIGYISYSGSTSYHPSLKSRISISRDTSKNQFFLQMNSVTTEDTATYYCTTIINYDKYDWYFDVWGQGTTVTVSS VL: DIVLTQSPASLVVSVRQRATISCRASQSVRTSSYSYIHWYQQKPGQPPKLLIYYASSLESGVPARFSGSGSGTDFTLNISPVEEEDTATYYCQHSWEIPWTFGPGTKVEIK	–	4 ng
E DI VH5/VL1 (antibody, V domains shown, also called immunogenicity-reduced Ab VH5/VL1) VH: DVQLQESGPGLVKPSQTLSLTCTVTGYSITSDYAWNWIRQFPGKGLEWMGYISYSGSTSYHPSLKSRISISRDTSKNQFFLQMNSVTTEDTATYYCTTIINYDKYDWYFDVWGQGTTVTVSS VL: DIVLTQSPASLVVSVRQRATISCRASQSVRTSSYSYIHWYQQKPGQPPKLLIYYASSLESGVPARFSGSGSGTDFTLNISPVEEEDTATYYCQHSWEIPWTFGPGTKVEIK	–	2 ng
